In article PMC6975058:
Each block holds one substance with its values, some of them ahead of it.

Key:
[1] = molecular target: trastuzumab heavy chain produced alone in HEK293 (in vivo folded HC); test: denaturing, non-reducing SDS-PAGE; MiniProtean TGX Stain-free gels 4-20%, band densitometry; shows only disulfide-linked species
[2] = molecular target: trastuzumab light chain produced alone in HEK293 (in vivo folded LC); test: as above
[3] = molecular target: trastuzumab light chain produced alone in HEK293 (in vivo folded LC); test: SEC; SEC-HPLC under native conditions, Zenix-C SEC-300, mobile phase PBS, 0.35 ml/min, absorbance at 214 nm; the isolated chain alone
[4] = molecular target: trastuzumab light chain, refolded in vitro by slow dialysis; test: as above

- stoichiometry N [1]: 2
Substance: trastuzumab heavy chain produced alone in HEK293 (in vivo folded HC) (domain or fragment)

- percent of LC in the 42 KDa band under denaturing conditions [2]: 55%
- stoichiometry N [3]: 2
Substance: trastuzumab light chain produced alone in HEK293 (in vivo folded LC) (domain or fragment)

- stoichiometry N [4]: 2
Substance: trastuzumab light chain, refolded in vitro by slow dialysis (domain or fragment)
